Assay [1] concerns the target full-length GsuK channel, L97D mutant (Geobacter sulfurreducens). In words: crystal structure; full-length channel in DM with E. coli polar lipids, about 6 mg/ml, 20°C, 13–18% PEG3350, 250–500 mM KSCN, 100 mM CHES pH 9.0; space group C2, four subunits in the asymmetric unit as two half channels; L97D also co-crystallised with 1 mM ADP or NAD+.
Assay [2] concerns the target T1, GsuK (Geobacter sulfurreducens, UniProt Q74FS9, E52A/L97D, form not given).
T1 construct: gene GSU0527; full-length channel from Ala9 with extra N-terminal MQRGS; C-terminal His-tag cut by thrombin; E. coli BL21(DE3); tetramer; model residues 17-564
In words: X-ray crystal structure, […] Å (co-crystallization). The assay is classed as binding. To be noted: 1 mM NAD+, pH 9.0; Ca2+-bound closed gating ring; nucleotide site on RCK2, nicotinamide beneath RCK1 helix αF; partial occupancy; allosteric.

The target of assay [3] is GsuK intracellular subunit (Geobacter sulfurreducens). In words: SEC; Superdex-200 (10/30) in 50 mM Tris–HCl pH 8.0, 250 mM KCl, 2 mM DTT, 4 mM LDAO (GsuK intracellular subunit). On the technique in general: Size exclusion chromatography separates by hydrodynamic size, large species first.
For assay [4] the target is unchanged. Nature of the assay: crystal structure; GsuK intracellular subunit, about 8 mg/ml in LDAO, sitting drop at 20°C, 20–23% PEG3350, 120 mM KCl, 80 mM NaNO3, 1% glycerol, 100 mM Bis-Tris propane pH 8.5; space group I222, four subunits forming a gating ring in the asymmetric unit; 3.0 Å.
For assay [5], the target named is full-length GsuK channel, wild type (with E52A and Q77E or R) (Geobacter sulfurreducens). In words: crystal structure; full-length channel in DM with E. coli polar lipids, about 6 mg/ml, 20°C, 13–18% PEG3350, 250–500 mM KSCN, 100 mM CHES pH 9.0; space group C2, four subunits in the asymmetric unit as two half channels; L97D also co-crystallised with 1 mM ADP or NAD+.

Assay [6] shares this target. Nature of the assay: SEC; Superdex-200 (10/30) in 20 mM CHES pH 9.0, 150 mM KSCN, 0.1 mg/ml E. coli polar lipid, 2 mM DTT, 4 mM DM (full-length GsuK channel).
Assay [7] addresses T1, GsuK. Nature of the assay: X-ray crystal structure, […] Å (co-crystallization). The conditions noted are these: 1 mM ADP, pH 9.0; Ca2+-bound closed gating ring; nucleotide site on RCK2; allosteric. It is filed as binding.

T1 sequence (Q74FS9 entry or part of it E52A/L97D, form open): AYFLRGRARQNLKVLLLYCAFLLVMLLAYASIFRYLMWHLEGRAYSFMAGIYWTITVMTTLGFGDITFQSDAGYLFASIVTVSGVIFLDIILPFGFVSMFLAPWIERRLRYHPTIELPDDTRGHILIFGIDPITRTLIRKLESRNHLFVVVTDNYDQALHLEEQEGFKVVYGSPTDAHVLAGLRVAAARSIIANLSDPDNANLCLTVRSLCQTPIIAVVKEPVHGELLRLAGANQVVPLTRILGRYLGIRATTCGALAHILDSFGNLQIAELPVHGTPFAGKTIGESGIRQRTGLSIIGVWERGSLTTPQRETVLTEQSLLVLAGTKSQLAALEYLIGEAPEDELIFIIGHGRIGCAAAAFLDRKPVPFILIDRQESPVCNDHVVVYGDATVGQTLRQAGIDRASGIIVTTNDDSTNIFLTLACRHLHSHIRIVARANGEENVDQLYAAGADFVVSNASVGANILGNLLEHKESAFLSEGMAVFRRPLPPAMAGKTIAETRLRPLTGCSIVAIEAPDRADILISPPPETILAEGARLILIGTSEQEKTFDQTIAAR

For orientation: stoichiometry N means the number of molecules, sites or subunits per partner or assembly. In the case of “full-length GsuK channel, L97D mutant (natural protein)”, the stoichiometry N in assay [1] worked out at 4. As to `NC(=O)c1ccc[n+]([C@@H]2O[C@H](COP(=O)(O)OP(=O)(O)OC[C@H]3O[C@@H](n4cnc5c(N)ncnc54)[C@H](O)[C@@H]3O)[C@@H](O)[C@H]2O)c1` [NAD^+], on GsuK [2], the “X-ray crystal structure, 3.2 Å (co-crystallization)” value was “we also co-crystallized the L97D mutant with ADP and NAD^+”.

“GsuK intracellular subunit (domain or fragment)”: the stoichiometry N in assay [3] and in assay [4] was 4 each time. Turning to “full-length GsuK channel, wild type (with E52A and Q77E or R) (natural protein)”, the stoichiometry N in assay [5] and in assay [6] was 4 throughout.

Turning to `Nc1ncnc2c1ncn2[C@@H]1O[C@H](COP(=O)(O)OP(=O)(O)O)[C@@H](O)[C@H]1O` [ADP], the “X-ray crystal structure, 2.8 Å (co-crystallization)” value on GsuK [7] is “we also co-crystallized the L97D mutant with ADP and NAD^+”.

Values taken from PMC3510474, “Distinct gating mechanisms revealed by the structures of a multi-ligand gated K^+ channel” (eLife, 2012).
